Assay results: publication doi:10.1101/2024.04.19.590210

Biological target: TF-HIS-BBX13 (BBX13/COL15) (Arabidopsis thaliana, UniProt Q9C7E8 1-433)
Experiment: EMSA

TF-HIS-BBX13 (BBX13/COL15), sequence (Q9C7E8 whole entry): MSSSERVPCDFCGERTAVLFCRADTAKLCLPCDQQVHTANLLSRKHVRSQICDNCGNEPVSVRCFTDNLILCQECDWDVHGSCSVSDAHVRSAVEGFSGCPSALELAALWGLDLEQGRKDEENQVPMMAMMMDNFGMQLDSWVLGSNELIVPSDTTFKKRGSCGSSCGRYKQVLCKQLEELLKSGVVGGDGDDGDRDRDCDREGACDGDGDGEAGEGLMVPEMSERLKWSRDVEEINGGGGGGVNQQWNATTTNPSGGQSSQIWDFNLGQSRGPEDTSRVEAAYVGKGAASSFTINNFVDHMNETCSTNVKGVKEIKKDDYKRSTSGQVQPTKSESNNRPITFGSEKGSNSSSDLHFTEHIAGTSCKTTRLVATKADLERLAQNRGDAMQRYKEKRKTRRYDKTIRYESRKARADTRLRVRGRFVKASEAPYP

B1: FT-CORE2 EMSA probe (FT Biot) (dsDNA)
DNA 1: ATCAATAGACAAGAAAAAGATTGTGGTTATGATTTCACCGACCCGAGTTAATG
DNA 2: CATTAACTCGGGTCGGTGAAATCATAACCACAATCTTTTTCTTGTCTATTGAT
Does B1 bind?
Result: binds
